Experiment [1] has as its target C-terminal periplasmic domain of ToxR (ToxR-C) (Vibrio vulnificus). In words: ITC; 0.2 mM ToxR-C in the cell, 10 mM cFP or linear FP in the syringe, 2 ul injections at 2 min intervals, 25 °C, 20 mM Na2HPO4 pH 7.8, 1 mM EDTA; simple binding model. On the technique in general: In ITC the heat of successive injections is recorded.
The target in experiment [2] is T1, ToxR-C (C-terminal periplasmic domain of ToxR) (Vibrio vulnificus, UniProt Q9RP86).
T1 construct: C-terminal His-tag (pET21a), expressed in E. coli BL21(DE3)
In words: isothermal titration calorimetry. Format: binding.

As usually defined, the Kd is the equilibrium constant for the complex coming apart. Lower therefore signals tighter binding. The term stoichiometry N denotes the number of molecules, sites or subunits per partner or assembly. In experiment [1], “cyclic-L-phenylalanine-L-proline (cFP) (peptide)” gave an equilibrium dissociation constant (Kd) of 42 µM and a stoichiometry N of 1.
`O=C1N[C@@H](Cc2ccccc2)C(=O)N2CCC[C@@H]12` [cFP] yielded a Kd in experiment [2] of 42 µM. This lies in the double-digit micromolar range.

For the origin of these results see PMC6934829, “Multi-Factor Regulation of the Master Modulator LeuO for the Cyclic-(Phe-Pro) Signaling Pathway in Vibrio vulnificus” (Scientific Reports, 2019).
